Measurements from US20230002478A1.

How the values were obtained:
Assay in all cases: SPR
Details in all cases: remark: other sources report otherwise
[1] = molecular target: SARS-CoV-2 S1 (D614G) (SARS-CoV-2), P0DTC2
[2] = molecular target: SARS-CoV-2 S1 (HV69-70del, Y144del, N501Y, A570D, D614G, P681H) (SARS-CoV-2), P0DTC2
[3] = molecular target: SARS-CoV-2 S RBD (K417N) (SARS-CoV-2), P0DTC2
[4] = molecular target: SARS-CoV-2 S RBD (Y453F) (SARS-CoV-2), P0DTC2
[5] = molecular target: SARS-CoV-2 S RBD (N501Y) (SARS-CoV-2), P0DTC2

B1: 6-63 (Fc fusion)
chain: EVQLVESGGGLVQPGGSLRLSCAASGQTFNMGWFRQAPGKEREFVAAIGSGGSTSYADSVKGRFTISADNSKNTAYLQMNSLKPEDTAVYYCWRLGNDYFDYWGQGTLVTVSS
Kd [1]: 95 nM
Kd [2]: 80 nM
Kd [3]: 14 nM
Kd [4]: 5.4 nM
Kd [5]: 3.8 nM
